Starred links: 1 amine or outer side, 2 acyl side, 3 side chain; linkers in the order of their positions; H or OH if unused. Non-standard residues stand in square brackets, D forms with d. *: point of attachment. AC4Abu = α-carboxy-4-aminobutyric acid, O=C(C(CCN[*:1])C(=O)[*:3])[*:2]; Oic = O=C(O)[C@@H]1C[C@@H]2CCCC[C@@H]2N1; Phe(4-Cl) = N[C@@H](Cc1ccc(Cl)cc1)C(=O)O; dPhe(4-Cl) = N[C@H](Cc1ccc(Cl)cc1)C(=O)O; γGlu = O=C(O)[C@H](CCC(=O)[*:2])N[*:1]; 2Nal = N[C@@H](Cc1ccc2ccccc2c1)C(=O)O; NMeR = CN[C@@H](CCCNC(=N)N)C(=O)O; Tridecanoyl = CCCCCCCCCCCCC(=O)*; hArg = N=C(N)NCCCC[C@H](N)C(=O)O; 3Pal = N[C@@H](Cc1cccnc1)C(=O)O; Cha = N[C@@H](CC1CCCCC1)C(=O)O; β3hL = CC(C)C[C@H](N)CC(=O)O; β3hP = O=C(O)C[C@@H]1CCCN1; Nle = CCCC[C@H](N)C(=O)O; AEEA = NCCOCCOCC(=O)O; βAla = NCCC(=O)O; BLys = β-lysine
Tests used:
[1] = molecular target: T1, human APJ receptor (human, UniProt P35414 1-380); test: cell-based or functional assay
T1 sequence (looked up): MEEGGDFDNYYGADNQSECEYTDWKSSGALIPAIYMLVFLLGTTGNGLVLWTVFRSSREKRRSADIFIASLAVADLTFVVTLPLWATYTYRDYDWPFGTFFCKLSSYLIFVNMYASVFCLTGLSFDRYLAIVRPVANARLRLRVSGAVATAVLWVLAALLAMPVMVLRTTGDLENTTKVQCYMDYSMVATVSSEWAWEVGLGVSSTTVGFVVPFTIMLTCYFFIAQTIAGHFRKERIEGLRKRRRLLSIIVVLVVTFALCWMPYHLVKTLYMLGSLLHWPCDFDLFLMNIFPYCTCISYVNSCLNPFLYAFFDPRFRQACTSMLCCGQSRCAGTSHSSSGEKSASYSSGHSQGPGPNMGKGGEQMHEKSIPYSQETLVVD

[2] = molecular target: T2, rat APJ receptor (rat, UniProt Q9JHG3 1-377); test: cell-based or functional assay
T2 sequence (looked up): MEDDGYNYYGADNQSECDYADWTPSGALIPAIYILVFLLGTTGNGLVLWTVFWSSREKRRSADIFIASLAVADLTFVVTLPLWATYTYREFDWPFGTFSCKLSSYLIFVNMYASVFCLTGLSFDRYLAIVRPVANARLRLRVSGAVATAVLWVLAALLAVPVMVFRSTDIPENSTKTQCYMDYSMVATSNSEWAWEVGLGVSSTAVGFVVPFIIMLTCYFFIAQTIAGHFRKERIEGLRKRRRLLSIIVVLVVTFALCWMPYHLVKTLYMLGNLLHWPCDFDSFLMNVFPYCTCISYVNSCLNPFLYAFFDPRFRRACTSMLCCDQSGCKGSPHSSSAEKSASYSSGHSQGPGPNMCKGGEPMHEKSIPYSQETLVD

| Binder | EC50 Human APJ Receptor (GTPγS assay) [1] [µM] | EC50 Rat APJ Receptor (GTPγS assay) [2] [µM] |
| --- | --- | --- |
| Tridecanoyl-[AC4Abu][AEEA][AEEA]Q[hArg]P[NMeR][Cha]SHKG[Oic][Nle]P[2Nal]-OH (SMILES CCCCCCCCCCCCC(=O)NCCC(C(=O)O)C(=O)NCCOCCOCC(=O)NCCOCCOCC(=O)N[C@@H](CCC(N)=O)C(=O)N[C@@H](CCCCNC(=N)N)C(=O)N1CCC[C@H]1C(=O)N(C)[C@@H](CCCNC(=N)N)C(=O)N[C@@H](CC1CCCCC1)C(=O)N[C@@H](CO)C(=O)N[C@@H](Cc1c[nH]cn1)C(=O)N[C@@H](CCCCN)C(=O)NCC(=O)N1[C@H](C(=O)N[C@@H](CCCC)C(=O)N2CCC[C@H]2C(=O)N[C@@H](Cc2ccc3ccccc3c2)C(=O)O)C[C@@H]2CCCC[C@@H]21) [Apelin polypeptide SEQ ID NO: 405] | 0.00575 | 0.0138 |
| Tridecanoyl-[γGlu][AEEA][AEEA][dQ][hArg]P[NMeR][Cha]SHKG[Oic][Nle][βAla][dPhe(4-Cl)]-OH (SMILES CCCCCCCCCCCCC(=O)N[C@@H](CCC(=O)NCCOCCOCC(=O)NCCOCCOCC(=O)N[C@H](CCC(N)=O)C(=O)N[C@@H](CCCCNC(=N)N)C(=O)N1CCC[C@H]1C(=O)N(C)[C@@H](CCCNC(=N)N)C(=O)N[C@@H](CC1CCCCC1)C(=O)N[C@@H](CO)C(=O)N[C@@H](Cc1c[nH]cn1)C(=O)N[C@@H](CCCCN)C(=O)NCC(=O)N1[C@H](C(=O)N[C@@H](CCCC)C(=O)NCCC(=O)N[C@H](Cc2ccc(Cl)cc2)C(=O)O)C[C@@H]2CCCC[C@@H]21)C(=O)O) [Apelin polypeptide SEQ ID NO: 295] | 0.00329 | 0.0104 |
| Tridecanoyl-[γGlu][AEEA][AEEA]Q[hArg]P[NMeR][Cha]SHKG[Oic][Nle]P[Phe(4-Cl)]-OH (SMILES CCCCCCCCCCCCC(=O)N[C@@H](CCC(=O)NCCOCCOCC(=O)NCCOCCOCC(=O)N[C@@H](CCC(N)=O)C(=O)N[C@@H](CCCCNC(=N)N)C(=O)N1CCC[C@H]1C(=O)N(C)[C@@H](CCCNC(=N)N)C(=O)N[C@@H](CC1CCCCC1)C(=O)N[C@@H](CO)C(=O)N[C@@H](Cc1c[nH]cn1)C(=O)N[C@@H](CCCCN)C(=O)NCC(=O)N1[C@H](C(=O)N[C@@H](CCCC)C(=O)N2CCC[C@H]2C(=O)N[C@@H](Cc2ccc(Cl)cc2)C(=O)O)C[C@@H]2CCCC[C@@H]21)C(=O)O) [Apelin polypeptide SEQ ID NO: 362] | 0.00197 | 0.00375 |
| Tridecanoyl-[γGlu][AEEA][AEEA][dQ][hArg]P[NMeR][Cha]SHKG[Oic][Nle][β3hP][dPhe(4-Cl)]-OH (SMILES CCCCCCCCCCCCC(=O)N[C@@H](CCC(=O)NCCOCCOCC(=O)NCCOCCOCC(=O)N[C@H](CCC(N)=O)C(=O)N[C@@H](CCCCNC(=N)N)C(=O)N1CCC[C@H]1C(=O)N(C)[C@@H](CCCNC(=N)N)C(=O)N[C@@H](CC1CCCCC1)C(=O)N[C@@H](CO)C(=O)N[C@@H](Cc1c[nH]cn1)C(=O)N[C@@H](CCCCN)C(=O)NCC(=O)N1[C@H](C(=O)N[C@@H](CCCC)C(=O)N2CCC[C@H]2CC(=O)N[C@H](Cc2ccc(Cl)cc2)C(=O)O)C[C@@H]2CCCC[C@@H]21)C(=O)O) [Apelin polypeptide SEQ ID NO: 296] | 0.00275 | 0.00232 |
| Tridecanoyl-[γGlu][AEEA][AEEA][dQ][hArg]P[NMeR][β3hL]SHKG[Oic][Nle]P[dPhe(4-Cl)]-OH (SMILES CCCCCCCCCCCCC(=O)N[C@@H](CCC(=O)NCCOCCOCC(=O)NCCOCCOCC(=O)N[C@H](CCC(N)=O)C(=O)N[C@@H](CCCCNC(=N)N)C(=O)N1CCC[C@H]1C(=O)N(C)[C@@H](CCCNC(=N)N)C(=O)N[C@H](CC(=O)N[C@@H](CO)C(=O)N[C@@H](Cc1c[nH]cn1)C(=O)N[C@@H](CCCCN)C(=O)NCC(=O)N1[C@H](C(=O)N[C@@H](CCCC)C(=O)N2CCC[C@H]2C(=O)N[C@H](Cc2ccc(Cl)cc2)C(=O)O)C[C@@H]2CCCC[C@@H]21)CC(C)C)C(=O)O) [Apelin polypeptide SEQ ID NO: 302] | 0.0165 | 0.0143 |
| Tridecanoyl-[γGlu][AEEA][AEEA][dQ][hArg]P[NMeR][Cha]S[βAla]KG[Oic][Nle]P[dPhe(4-Cl)]-OH (SMILES CCCCCCCCCCCCC(=O)N[C@@H](CCC(=O)NCCOCCOCC(=O)NCCOCCOCC(=O)N[C@H](CCC(N)=O)C(=O)N[C@@H](CCCCNC(=N)N)C(=O)N1CCC[C@H]1C(=O)N(C)[C@@H](CCCNC(=N)N)C(=O)N[C@@H](CC1CCCCC1)C(=O)N[C@@H](CO)C(=O)NCCC(=O)N[C@@H](CCCCN)C(=O)NCC(=O)N1[C@H](C(=O)N[C@@H](CCCC)C(=O)N2CCC[C@H]2C(=O)N[C@H](Cc2ccc(Cl)cc2)C(=O)O)C[C@@H]2CCCC[C@@H]21)C(=O)O) [Apelin polypeptide SEQ ID NO: 304] | 0.139 | 0.261 |
| Tridecanoyl-[AC4Abu][AEEA][AEEA][dQ][hArg]P[NMeR][Cha][βAla]HKG[Oic][Nle]P[dPhe(4-Cl)]-OH (SMILES CCCCCCCCCCCCC(=O)NCCC(C(=O)O)C(=O)NCCOCCOCC(=O)NCCOCCOCC(=O)N[C@H](CCC(N)=O)C(=O)N[C@@H](CCCCNC(=N)N)C(=O)N1CCC[C@H]1C(=O)N(C)[C@@H](CCCNC(=N)N)C(=O)N[C@@H](CC1CCCCC1)C(=O)NCCC(=O)N[C@@H](Cc1c[nH]cn1)C(=O)N[C@@H](CCCCN)C(=O)NCC(=O)N1[C@H](C(=O)N[C@@H](CCCC)C(=O)N2CCC[C@H]2C(=O)N[C@H](Cc2ccc(Cl)cc2)C(=O)O)C[C@@H]2CCCC[C@@H]21) [Apelin polypeptide SEQ ID NO: 303] | 0.0792 | 0.0741 |
| Tridecanoyl-[γGlu][AEEA][AEEA][dQ][hArg]P[NMeR][Cha]SHK[βAla][Oic][Nle]P[dPhe(4-Cl)]-OH (SMILES CCCCCCCCCCCCC(=O)N[C@@H](CCC(=O)NCCOCCOCC(=O)NCCOCCOCC(=O)N[C@H](CCC(N)=O)C(=O)N[C@@H](CCCCNC(=N)N)C(=O)N1CCC[C@H]1C(=O)N(C)[C@@H](CCCNC(=N)N)C(=O)N[C@@H](CC1CCCCC1)C(=O)N[C@@H](CO)C(=O)N[C@@H](Cc1c[nH]cn1)C(=O)N[C@@H](CCCCN)C(=O)NCCC(=O)N1[C@H](C(=O)N[C@@H](CCCC)C(=O)N2CCC[C@H]2C(=O)N[C@H](Cc2ccc(Cl)cc2)C(=O)O)C[C@@H]2CCCC[C@@H]21)C(=O)O) [Apelin polypeptide SEQ ID NO: 294] | > 4.17 | 0.0307 |
| Tridecanoyl-[γGlu][AEEA][AEEA][dQ][hArg]P[NMeR][Cha]SH[βAla]G[Oic][Nle]P[dPhe(4-Cl)]-OH (SMILES CCCCCCCCCCCCC(=O)N[C@@H](CCC(=O)NCCOCCOCC(=O)NCCOCCOCC(=O)N[C@H](CCC(N)=O)C(=O)N[C@@H](CCCCNC(=N)N)C(=O)N1CCC[C@H]1C(=O)N(C)[C@@H](CCCNC(=N)N)C(=O)N[C@@H](CC1CCCCC1)C(=O)N[C@@H](CO)C(=O)N[C@@H](Cc1c[nH]cn1)C(=O)NCCC(=O)NCC(=O)N1[C@H](C(=O)N[C@@H](CCCC)C(=O)N2CCC[C@H]2C(=O)N[C@H](Cc2ccc(Cl)cc2)C(=O)O)C[C@@H]2CCCC[C@@H]21)C(=O)O) [Apelin polypeptide SEQ ID NO: 293] | 0.109 | 0.11 |
| Tridecanoyl-[γGlu][AEEA][AEEA][dQ][hArg]P[NMeR][Cha]SH[3Pal]G[Oic][Nle]P[dPhe(4-Cl)]-OH (SMILES CCCCCCCCCCCCC(=O)N[C@@H](CCC(=O)NCCOCCOCC(=O)NCCOCCOCC(=O)N[C@H](CCC(N)=O)C(=O)N[C@@H](CCCCNC(=N)N)C(=O)N1CCC[C@H]1C(=O)N(C)[C@@H](CCCNC(=N)N)C(=O)N[C@@H](CC1CCCCC1)C(=O)N[C@@H](CO)C(=O)N[C@@H](Cc1c[nH]cn1)C(=O)N[C@@H](Cc1cccnc1)C(=O)NCC(=O)N1[C@H](C(=O)N[C@@H](CCCC)C(=O)N2CCC[C@H]2C(=O)N[C@H](Cc2ccc(Cl)cc2)C(=O)O)C[C@@H]2CCCC[C@@H]21)C(=O)O) [Apelin polypeptide SEQ ID NO: 305] | 0.078 | 0.0667 |
| Tridecanoyl-[γGlu][AEEA][AEEA][dQ][hArg]P[NMeR][Cha]SH[BLys]G[Oic][Nle]P[dPhe(4-Cl)]-OH [Apelin polypeptide SEQ ID NO: 306] | 0.0741 | 0.137 |

Reference: patent US10941182 (Amgen, dated 2021)
